Assay results as given in patent US20060115870.

Target: T1, Long S6 substrate peptide (32 amino-acid)
T1 chain: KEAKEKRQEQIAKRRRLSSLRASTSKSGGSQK

B1: Human recombinant Rho kinase (ROKα/ROCK-II, amino acids 11-552), human active, catalog #14-451, Upstate USA, Inc. (protein)
chain: PGAPETAPGDGAGASRQRKLEALIRDPRSPINVESLLDGLNSLVLDLDFPALRKNKNIDNFLNRYEKIVKKIRGLQMKAEDYDVVKVIGRGAFGEVQLVRHKASQKVYAMKLLSKFEMIKRSDSAFFWEERDIMAFANSPWVVQLFYAFQDDRYLYMVMEYMPGGDLVNLMSNYDVPEKWAKFYTAEVVLALDAIHSMGLIHRDVKPDNMLLDKHGHLKLADFGTCMKMDETGMVHCDTAVGTPDYISPEVLKSQGGDGFYGRECDWWSVGVFLYEMLVGDTPFYADSLVGTYSKIMDHKNSLCFPEDAEISKHAKNLICAFLTDREVRLGRNGVEEIRQHPFFKNDQWHWDNIRETAAPVVPELSSDIDSSNFDDIEDDKGDVETFPIPKAFVGNQLPFIGFTYYRENLLLSDSPSCRENDSIQSRKNEESQEIQKKLYTLEEHLSNEMQAKEELEQKCKSVNTRLEKTAKELEEEITLRKSVESALRQLEREKALLQHKNAEYQRKADHEADKKRNLENDVNSLKDQLEDLKKRNQNSQI
Maximum DPMs found in phosphorylated substrate (i.e. product): 52,557±2,058 (n=14) (0.22% of total added DPMs) | Net fold phosphorylation of substrate (33P incorporation, filter mat kinase assay): 4.4-fold above basal blanks (n=14 experiments; 42 separate assay determinations)
